Literature values, collected in article PMC3496018.

Experiments:
LRP6 (Homo sapiens) = LRP6 (Homo sapiens) (UniProt O75581)
[1] = molecular target: Syndecan-4 (Homo sapiens) (UniProt P31431)
Sequence of UniProt P31431 (P31431 19-145): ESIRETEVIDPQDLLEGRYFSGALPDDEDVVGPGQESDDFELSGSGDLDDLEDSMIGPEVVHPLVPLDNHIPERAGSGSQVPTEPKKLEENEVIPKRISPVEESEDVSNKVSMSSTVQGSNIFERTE

Sequence of UniProt O75581 (O75581 20-1370): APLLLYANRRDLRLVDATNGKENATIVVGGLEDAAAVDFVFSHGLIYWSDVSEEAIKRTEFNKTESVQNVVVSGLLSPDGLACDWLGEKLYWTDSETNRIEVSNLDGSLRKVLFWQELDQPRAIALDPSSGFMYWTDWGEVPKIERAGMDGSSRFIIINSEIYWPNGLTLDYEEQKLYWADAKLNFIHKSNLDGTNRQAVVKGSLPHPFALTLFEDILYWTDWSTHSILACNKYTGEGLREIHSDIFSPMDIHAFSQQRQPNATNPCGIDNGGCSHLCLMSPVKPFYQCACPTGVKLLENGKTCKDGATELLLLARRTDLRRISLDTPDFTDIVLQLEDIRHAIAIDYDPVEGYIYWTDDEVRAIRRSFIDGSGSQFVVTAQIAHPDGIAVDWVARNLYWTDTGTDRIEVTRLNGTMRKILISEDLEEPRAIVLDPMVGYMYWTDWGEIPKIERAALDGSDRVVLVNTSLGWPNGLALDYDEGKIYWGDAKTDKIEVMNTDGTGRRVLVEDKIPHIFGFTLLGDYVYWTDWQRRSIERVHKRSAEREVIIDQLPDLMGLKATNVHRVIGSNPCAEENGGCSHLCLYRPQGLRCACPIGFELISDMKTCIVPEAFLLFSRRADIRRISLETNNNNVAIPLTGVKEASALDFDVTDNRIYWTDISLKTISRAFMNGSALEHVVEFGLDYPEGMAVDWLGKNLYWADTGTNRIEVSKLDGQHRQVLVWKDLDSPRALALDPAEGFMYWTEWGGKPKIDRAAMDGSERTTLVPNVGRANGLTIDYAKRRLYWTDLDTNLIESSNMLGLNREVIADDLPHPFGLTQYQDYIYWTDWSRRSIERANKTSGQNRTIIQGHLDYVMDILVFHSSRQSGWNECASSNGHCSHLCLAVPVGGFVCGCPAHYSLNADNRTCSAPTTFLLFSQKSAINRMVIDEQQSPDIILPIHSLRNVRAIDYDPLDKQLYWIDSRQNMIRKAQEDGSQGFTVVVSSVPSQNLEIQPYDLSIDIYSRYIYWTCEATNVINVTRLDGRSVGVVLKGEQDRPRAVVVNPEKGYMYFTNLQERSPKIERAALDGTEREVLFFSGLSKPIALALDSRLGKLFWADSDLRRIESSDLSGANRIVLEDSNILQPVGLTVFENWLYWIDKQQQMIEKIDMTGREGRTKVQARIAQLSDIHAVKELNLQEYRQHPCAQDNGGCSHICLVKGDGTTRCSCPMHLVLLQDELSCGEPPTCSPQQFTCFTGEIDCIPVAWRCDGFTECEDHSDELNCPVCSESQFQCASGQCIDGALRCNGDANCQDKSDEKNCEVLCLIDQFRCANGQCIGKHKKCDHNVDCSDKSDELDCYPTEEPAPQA

Kd (LRP6 (Homo sapiens)) [nM] | Kd [1] [nM] | Substance
1.2 | – | RSPO1 (from UniProt Q2MKA7)
– | 0.88 | RSPO3 (from UniProt Q9BXY4)
